Values quoted from earlier work in PMC2702134.

Biological target: Glu50 (UniProt position 50, LEWIGEINPDS)

Catalytic antibody 34E4 (Kemp eliminase)
pKa: 6.4
